The source of these data is patent publication US20140329706A1, “AFFINITY TAGS, AND RELATED AFFINITY LIGANDS, ENGINEERED PROTEINS, MODIFIED SUPPORTS, COMPOSITIONS, METHODS AND SYSTEMS” (CALIFORNIA INSTITUTE OF TECHNOLOGY, priority 2013, published 2014).

This assay deals with T1, PSD-95 PDZ1-PDZ2 (Mus musculus, UniProt Q62108).
T1 construct: HaloTag-PDZ1+PDZ2 fusion protein (residues 61 to 249 of Mus musculus PSD-95); HaloTag (N); made in house
Nature of the assay: Binding of cypin to PSD-95 PDZ1-PDZ2 affinity resin. The source says: An affinity column was used substituted with a HaloTag-PDZ1+PDZ2 fusion protein (residues 61 to 249 of Mus musculus PSD-95) to purify heterologously expressed human cypin. Cypin was expressed in E. coli either as the free protein or fused to an N-terminal MBP, and purified from the bacterial supernate on the PDZ1-PDZ2 Domain-Affinity Resin. Both cypin and MBP-cypin were purified to >99% homogeneity.
For the experiment, full length cypin (guanine deaminase, Homo sapiens: AA 1-454) or MBP-cypin fusion proteins were expressed in BL21(DE3) E. coli cells. Single colonies of BL21(DE3) cells harboring pJExpress414 plasmids containing cypin or MBP-cypin genes were grown overnight at 37° C. in 5 ml of lysogeny broth (LB) (Cat. No. L9110, Teknova, Hollister, Calif.) supplemented with 100 ug/ml carbenicillin. […] Bacterial cell pellets (0.4-2.5 grams) containing cypin or MBP-cypin were resuspended in 5 ml/g cell paste of BugBuster Lysis Buffer [1× BugBuster (Cat. No. 70921, EMD Millipore, Billerica Mass.), 50 mM HEPES, 150 mM NaCl, 5 mM TCEP, 0.5 mM EDTA, 10 mM MgCl2, 2 mM PMSF, Complete Protease Inhibitor supplemented with 25 U/ml Benzonase and 10 U/ml ReadyLyse]. […] Eluted protein was analyzed on 4-12% bis-tris SDS-PAGE gels and proteins were detected by Gel Code Blue staining.

T1 sequence (Q62108 61-249): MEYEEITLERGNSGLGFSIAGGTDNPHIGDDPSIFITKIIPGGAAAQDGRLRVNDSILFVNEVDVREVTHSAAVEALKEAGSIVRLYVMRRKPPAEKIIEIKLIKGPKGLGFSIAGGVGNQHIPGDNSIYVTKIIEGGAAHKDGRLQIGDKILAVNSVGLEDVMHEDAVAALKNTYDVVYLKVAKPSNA

B1: untagged cypin: full length cypin (guanine deaminase, Homo sapiens: AA 1-454) (protein)
chain: MCAAQMPPLAHIFRGTFVHSTWTCPMEVLRDHLLGVSDSGKIVFLEEASQQEKLAKEWCFKPCEIRELSHHEFFMPGLVDTHIHASQYSFAGSSIDLPLLEWLTKYTFPAEHRFQNIDFAEEVYTRVVRRTLKNGTTTACYFATIHTDSSLLLADITDKFGQRAFVGKVCMDLNDTFPEYKETTEESIKETERFVSEMLQKNYSRVKPIVTPRFSLSCSETLMGELGNIAKTRDLHIQSHISENRDEVEAVKNLYPSYKNYTSVYDKNNLLTNKTVMAHGCYLSAEELNVFHERGASIAHCPNSNLSLSSGFLNVLEVLKHEVKIGLGTDVAGGYSYSMLDAIRRAVMVSNILLINKVNEKSLTLKEVFRLATLGGSQALGLDGEIGNFEVGKEFDAILINPKASDSPIDLFYGDFFGDISEAVIQKFLYLGDDRNIEEVYVGGKQVVPFSSSV
As for B1, the “binding to solid support PDZ1 and PDZ2 domains” value was “able to bind with strong affinity”.

B2: MBP-cypin: cypin fused to an N-terminal maltose binding protein (protein)
chain: MCAAQMPPLAHIFRGTFVHSTWTCPMEVLRDHLLGVSDSGKIVFLEEASQQEKLAKEWCFKPCEIRELSHHEFFMPGLVDTHIHASQYSFAGSSIDLPLLEWLTKYTFPAEHRFQNIDFAEEVYTRVVRRTLKNGTTTACYFATIHTDSSLLLADITDKFGQRAFVGKVCMDLNDTFPEYKETTEESIKETERFVSEMLQKNYSRVKPIVTPRFSLSCSETLMGELGNIAKTRDLHIQSHISENRDEVEAVKNLYPSYKNYTSVYDKNNLLTNKTVMAHGCYLSAEELNVFHERGASIAHCPNSNLSLSSGFLNVLEVLKHEVKIGLGTDVAGGYSYSMLDAIRRAVMVSNILLINKVNEKSLTLKEVFRLATLGGSQALGLDGEIGNFEVGKEFDAILINPKASDSPIDLFYGDFFGDISEAVIQKFLYLGDDRNIEEVYVGGKQVVPFSSSV
modifications: left off: large carriers
For the molecule B2, the “binding to solid support PDZ1 and PDZ2 domains” value is recorded as “able to bind with strong affinity”.
